Substrate: CC(=O)N[C@H]1[C@H](Oc2ccc3c(C)cc(=O)oc3c2)O[C@H](CO)[C@@H](O)[C@@H]1O
Assay: purified protein

B1: human O-GlcNAcase (hOGA) (Homo sapiens) (protein)
chain: AAGGARRFLCGVVEGFYGRPWVMEQRKELFRRLQKWELNTYLYAPKDDYKHRMFWREMYSVEEAEQLMTLISAAREYEIEFIYAISPGLDITFSNPKEVSTLKRKLDQVSQFGCRSFALLFDDIDHNMCAADKEVFSSFAHAQVSITNEIYQYLGEPETFLFCPTEYCGTFCYPNVSQSPYLRTVGEKLLPGIEVLWTGPKVVSKEIPVESIEEVSKIIKRAPVIWDNIHANDYDQKRLFLGPYKGRSTELIPRLKGVLTNPNCEFEANYVAIHTLATWYKSNMNGVRKDVVMTDSEDSTVSIQIKLENEGSDEDIETDVLYSPQMALKLALTEWLQEFGVPHQYSSRQVAHSGAKASVVDGTPLVAAPSLNATTVVTTVYQEPIMSQGAALSGEPTTLTKEEEKKQPDEEPMDMVVEKQEETDHKNDNQILSEIVEAKMAEELKPMDTDKESIAESKSPEMSMQEDCISDIAPMQTDEQTNKEQFVPGPNEKPLYTAEPVTLEDLQLLADLFYLPYEHGPKGAQMLREFQWLRANSSVVSVNCKGKDSEKIEEWRSRAAKFEEMCGLVMGMFTRLSNCANRTILYDMYSYVWDIKSIMSMVKSFVQWLGCRSHSSAQFLIGDQEPWAFRGGLAGEFQRLLPIDGANDLFFQPPPLTPTSKVYTIRPYFPKDEASVYKICREMYDDGVGLPFQSQPDLIGDKLVGGLLSLSLDYCFVLEDEDGICGYALGTVDVTPFIKKCKISWIPFMQEKYTKPNGDKELSEAEKIMLSFHEEQEVLPETFLANFPSLIKMDIHKKVTDPSVAKSMMACLLSSLKANGSRGAFCEVRPDDKRILEFYSKLGCFEIAKMEGFPKDVVILGRSL
Km: 80 ± 6 µM

Source: publication PMC2568864, “Chemical Dissection of the Link between Streptozotocin, O-GlcNAc, and Pancreatic Cell Death” (Chemistry & Biology, 2008)
